Experiments:
Rrp1;Rad51 = molecular target: T1, Rrp1;Rad51 (Schizosaccharomyces …, UniProt O13762;P36601 1-897;1-365, |); assay: fluorescence anisotropy; 2 mM ATP; 3.5 mM Mg2+; scavenger PhiX174 ssDNA; EMSA: 25 mM HEPES pH 7.5, 1 mM DTT, 60 mM KCl, 2 mM ATP, 3.5 mM MgCl2, 5% glycerol, 37 C, 0.2% glutaraldehyde; anisotropy: 30 mM HEPES pH 7.5, 1 mM DTT, 50 mM NaCl, 100 mM KCl, 2 mM ATP, 8 mM PC, 8 U/ml CPK, 3.5 mM MgCl2, 2.5% glycerol, 37 C; settings: protein: recombinant;recombinant; tags: 3xFLAG (methods: N-terminal 3xFLAG and C-terminal GST, but construct named GST-Rrp1-FLAG); GST removed by HRV-3C;; single strand
T1 sequence 1: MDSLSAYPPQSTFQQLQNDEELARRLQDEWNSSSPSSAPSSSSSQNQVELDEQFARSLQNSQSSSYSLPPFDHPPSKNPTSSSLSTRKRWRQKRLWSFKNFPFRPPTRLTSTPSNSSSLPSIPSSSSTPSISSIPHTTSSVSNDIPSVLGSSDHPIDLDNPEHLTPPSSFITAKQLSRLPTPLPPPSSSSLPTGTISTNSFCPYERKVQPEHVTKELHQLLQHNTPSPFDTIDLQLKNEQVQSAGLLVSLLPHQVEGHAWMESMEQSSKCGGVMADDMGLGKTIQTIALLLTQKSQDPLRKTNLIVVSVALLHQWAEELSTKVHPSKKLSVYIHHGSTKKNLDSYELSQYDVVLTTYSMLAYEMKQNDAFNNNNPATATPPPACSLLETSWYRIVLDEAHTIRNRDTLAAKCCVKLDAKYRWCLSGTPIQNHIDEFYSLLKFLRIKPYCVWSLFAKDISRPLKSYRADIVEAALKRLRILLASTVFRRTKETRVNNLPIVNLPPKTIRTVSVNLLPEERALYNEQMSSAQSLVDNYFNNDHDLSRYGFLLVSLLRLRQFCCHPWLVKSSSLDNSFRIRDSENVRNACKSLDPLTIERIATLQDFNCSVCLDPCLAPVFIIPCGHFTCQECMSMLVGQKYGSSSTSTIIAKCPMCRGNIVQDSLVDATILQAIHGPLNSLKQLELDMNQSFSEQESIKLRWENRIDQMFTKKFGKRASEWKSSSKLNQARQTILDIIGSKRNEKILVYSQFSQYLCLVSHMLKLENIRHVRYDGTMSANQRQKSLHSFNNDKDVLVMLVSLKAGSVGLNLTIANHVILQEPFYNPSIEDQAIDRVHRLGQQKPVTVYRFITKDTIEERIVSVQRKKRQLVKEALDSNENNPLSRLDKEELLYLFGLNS
T1 sequence 2: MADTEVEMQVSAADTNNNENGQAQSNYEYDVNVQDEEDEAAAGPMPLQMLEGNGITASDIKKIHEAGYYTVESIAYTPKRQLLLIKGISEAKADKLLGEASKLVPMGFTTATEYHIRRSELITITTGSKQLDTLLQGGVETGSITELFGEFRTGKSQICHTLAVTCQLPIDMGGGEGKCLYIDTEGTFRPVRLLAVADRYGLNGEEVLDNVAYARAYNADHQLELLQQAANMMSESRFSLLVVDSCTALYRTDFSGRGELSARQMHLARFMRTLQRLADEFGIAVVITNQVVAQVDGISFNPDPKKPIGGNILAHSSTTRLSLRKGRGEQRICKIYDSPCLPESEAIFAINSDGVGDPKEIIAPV

[1] = molecular target: T2, Rrp1-FLAG (purified recombinant) (S. pombe, UniProt O13762 1-897); assay: co-IP; purified Rad51 and FLAG-tagged Rrp1 (250 nM each) in IP buffer (35 mM Tris-HCl pH 7.5, 1 mM DTT, 100 mM NaCl, 3.5 mM MgCl2, 0.1% NP-40, 5% glycerol), 30 min at 30°C; precipitated with anti-FLAG M2 affinity gel 2 h at 4°C, eluted with 3xFLAG peptide, western blot; settings: both partners purified
T2 construct: Rrp1 of Schizosaccharomyces pombe, rrp1+ in pGEX-6P; only the former was removed'; read here as GST-Rrp1-3xFLAG; GST removed with HRV-3C protease; also called purified Rrp1-FLAG; FLAG-tagged Rrp1; source: E. coli Rosetta, from pGEX-6P, purified (GSH sepharose, HiTrap Heparin, Resource Q, HiTrap SP); not shown: GST, N-terminal, cleaved; 3xFLAG, C-terminal, kept
T2 sequence (looked up): T1 sequence 1

Rad51 = molecular target: T3, Rad51 (Schizosaccharomyces pombe, UniProt P36601 1-365); assay: fluorescence anisotropy; 2 mM ATP; 3.5 mM Mg2+; 6 uM Rad51; scavenger ssDNA for koff; EMSA: 25 mM HEPES pH 7.5, 1 mM DTT, 60 mM KCl, 2 mM ATP, 3.5 mM MgCl2, 5% glycerol, 37 C, 0.2% glutaraldehyde; anisotropy: 30 mM HEPES pH 7.5, 1 mM DTT, 50 mM NaCl, 100 mM KCl, 2 mM ATP, 8 mM PC, 8 U/ml CPK, 3.5 mM MgCl2, 2.5% glycerol, 37 C; settings: protein: recombinant; label: 5'-TAMRA on 16A(-); blunt
T3 sequence: T1 sequence 2

B1: oligo-dT 72-mer (ssDNA)
DNA: TTTTTTTTTTTTTTTTTTTTTTTTTTTTTTTTTTTTTTTTTTTTTTTTTTTTTTTTTTTTTTTTTTTTTTTT
- binding result (Rrp1;Rad51): binds

B2: Rad51 (purified) (natural protein, S. pombe, UniProt P36601 1-365, looked up)
chain: T1 sequence 2
notes: Rad51 of Schizosaccharomyces pombe; also called purified Rad51
- binding result [1]: binds

B3: 16A(-)/16A(+) 83-mer dsDNA (dsDNA)
DNA 1: AAATGAACATAAAGTAAATAAGTATAAGGATAATACAAAATAAGTAAATGAATAAACATAGAAAATAAAGTAAAGGATATAAA
DNA 2: TTTATATCCTTTACTTTATTTTCTATGTTTATTCATTTACTTATTTTGTATTATCCTTATACTTATTTACTTTATGTTCATTT
- binding result (Rad51): binds
